Assay results reported in CN109957012A.

How the values were obtained:
[1] = biological target: H7N9病毒的血凝素HA (H7N9 influenza virus); assay: ELISA of 293F transfection supernatant (well C, supernatant)
[2] = biological target: H7N9病毒的血凝素HA (H7N9 influenza virus); assay: ELISA of 293F transfection supernatant (well B, supernatant)
[3] = biological target: H7N9病毒的血凝素HA (H7N9 influenza virus); assay: ELISA of 293F transfection supernatant (well A, supernatant)

B1: 抗H7N9全人源单克隆抗体8E17 (antibody, V domains shown)
VH: QVQLVESGGGVVQPGRSLRLSCAASGFIFSNYGMHWVRQAPGRGLEWVAVIWSDGTTTYYADSFKGRFTISSDNSKNTVYLQMNSLRADDSAIYYCARGDLDVVQVAAVTKLWDYWGQGTLVTVSS
VL: QSVLTQPPSASGSLGRSVTISCTGTSSDVGGYNYVSWYQQHPGKVPKLLVYEVTKRPSGVPDRFSGSKSGNTASLTVSGLQAEDEADYYCSSYAVSNNFVFGTGTKLTVTV
[1]
  absorbance at 450 nm (450): 2.96 OD450
[2]
  absorbance at 450 nm (450): 3.12 OD450
[3]
  absorbance at 450 nm (450): 3 OD450
